PMC12529880, “Structural mechanisms for cold‐adapted activity of phosphoenolpyruvate carboxykinase” (Protein Science : A Publication of the Protein Society, 2025)

Test system: T1, C=C(OP(=O)(O)O)C(=O)O
T1 construct: full length, 622 residues, N-terminal His6-SUMO tag cleaved off with no additional amino acids; codon-optimised gene in pESUMO-Star; E. coli BL21(DE3); EC 4.1.1.32
Assay: purified protein
Format: biochemical, Polaromonas naphthalenivorans
Conditions: 25 °C, pH 7.5, 1 mM GDP, 50 mM KHCO3, 4 mM MgCl2, 100 μM MnCl2, PEP carboxylation direction

“PnPEPCK (Polaromonas naphthalenivorans CJ2)” gave a Km of 2500 ± 650 µM, a kcat of 23 ± 1.4 s⁻¹ and a kcat/Km of 9200 M⁻¹ s⁻¹.
